Data from US8679766B2, “E-cadherin as a biomarker of gastroesophageal reflux disease” (The University of North Carolina at Chapel Hill, priority 2009, dated 2014).

Test system: rabbit EE
Experiment: Barrier breaker search: rabbit EE in U-chambers, monitoring RT (marker of PCP) and Isc
Assay type: cell-based
Conditions: at pH 2
Excerpt: Agents that increase paracellular permeability (PCP) in EE are potential contributors to GERD by enabling diffusion of luminal acid into the intercellular space. Therefore, substances were sought within the refluxate, meals and inflammation that could ‘break the barrier’. This was done by exposing rabbit EE in U-chambers to candidate inflammatory agents while both monitoring RT, as a marker of PCP, and Isc (short circuit current), as a marker of active transport. The inflammatory agents were selected based on presence in EE or on reports that they can break the barrier in other epithelia (47-60).

B1: pepsin: barrier breaker identified at pH 2 (protein, UniProt P0DJD8 63-388, looked up)
Pepsin A-3: VDEQPLENYLDMEYFGTIGIGTPAQDFTVVFDTGSSNLWVPSVYCSSLACTNHNRFNPEDSSTYQSTSETVSITYGTGSMTGILGYDTVQVGGISDTNQIFGLSETEPGSFLYYAPFDGILGLAYPSISSSGATPVFDNIWNQGLVSQDLFSVYLSADDQSGSVVIFGGIDSSYYTGSLNWVPVTVEGYWQITVDSITMNGEAIACAEGCQAIVDTGTSLLTGPTSPIANIQSDIGASENSDGDMVVSCSAISSLPDIVFTINGVQYPVPPSAYILQSEGSCISGFQGMNLPTESGELWILGDVFIRQYFTVFDRANNQVGLAPVA
- breaks the barrier (RT as marker of PCP): barrier breakers
